Measurements: patent EP0871495B1

Target: MHC class II antigen on the Raji B cell line
Assay: cell-based or functional assay

## CD4:ζ chimera (CD4 extracellular domain fused to human T cell receptor ζ chain)
  cytolysis (51Cr release) of Raji (MHC class II+) cells by CTL expressing CD4:ζ: 5 % cytolysis
